Source: patent publication US20220088146A1 (PALATIN TECHNOLOGIES, published 2022)
Numbered stars: 1 amine (or outer) side, 2 acyl side, 3 side chain; on linkers, the order of the positions; unused ones are H or OH. Bridge positions count the residues as written; N and C are the ends. Square brackets hold non-standard residues; d marks the D form. * marks the point of attachment. Cyclohexanecarbonyl = O=C(C1CCCCC1)*; Cyclohexylacetyl = O=C(CC1CCCCC1)*; Cyclopentylacetyl = O=C(CC1CCCC1)*; Cyclopropanecarbonyl = O=C(C1CC1)*; Hydrocinnamoyl = O=C(CCc1ccccc1)*; Suc = O=C(CCC(=O)[*:2])[*:1]; Heptanoyl = CCCCCCC(=O)*; Nle = CCCC[C@H](N)C(=O)O; Dab = NCC[C@H](N)C(=O)O; Dap = NC[C@H](N)C(=O)O; Hexanoyl = CCCCCC(=O)*; Pentanoyl = CCCCC(=O)*; PhAc = O=C(Cc1ccccc1)*; Butyryl = CCCC(=O)*

B1: Ac-Nle-cyclo(Cys-His-D-Phe-Arg-Cys)-Trp-NH2 (peptide)
peptide: Ac-[Nle]CH[dF]RCW-NH2
modifications: disulfide 2-6
notes: also called 9.5
B2: Ac-Nle-cyclo(Glu-His-Phe-Arg-Dab)-Trp-NH2 (peptide)
peptide: Ac-[Nle]EHFR[Dab]W-NH2
modifications: lactam 2-6
notes: also called 9.8
B3: Ac-Nle-cyclo(Glu-His-D-Phe-Arg-Lys)-Trp-NH2 (peptide)
peptide: Ac-[Nle]EH[dF]RKW-NH2
modifications: lactam 2-6
notes: also called 9.1
B4: Ac-Phe-cyclo(Glu-His-D-Phe-Arg-Dab)-Trp-NH2 (peptide)
peptide: Ac-FEH[dF]R[Dab]W-NH2
modifications: lactam 2-6
notes: also called 9.13
B5: cyclo(Suc-His-Phe-Arg-Dab)-Trp-NH2 (peptide)
peptide: [Suc]HFR[Dab]W-NH2
modifications: lactam N-5
SMILES: N=C(N)NCCC[C@@H]1NC(=O)[C@H](Cc2ccccc2)NC(=O)[C@H](Cc2c[nH]cn2)NC(=O)CCC(=O)NCC[C@@H](C(=O)N[C@@H](Cc2c[nH]c3ccccc23)C(N)=O)NC1=O
notes: also called 9.14
B6: CH3-(CH2)2-C(═O)-cyclo(Glu-His-D-Phe-Arg-Dab)-Trp-NH2 (peptide)
peptide: Butyryl-EH[dF]R[Dab]W-NH2
modifications: lactam 1-5
notes: also called 9.15
B7: CH3-(CH2)3-C(═O)-cyclo(Glu-His-D-Phe-Arg-Dab)-Trp-NH2 (peptide)
peptide: Pentanoyl-EH[dF]R[Dab]W-NH2
modifications: lactam 1-5
notes: also called 9.16
B8: CH3-(CH2)4-C(═O)-cyclo(Glu-His-D-Phe-Arg-Dab)-Trp-NH2 (peptide)
peptide: Hexanoyl-EH[dF]R[Dab]W-NH2
modifications: lactam 1-5
notes: also called 9.17
B9: CH3-(CH2)5-C(═O)-cyclo(Glu-His-D-Phe-Arg-Dab)-Trp-NH2 (peptide)
peptide: Heptanoyl-EH[dF]R[Dab]W-NH2
modifications: lactam 1-5
notes: also called 9.18
B10: cyclo-propanoyl-cyclo(Glu-His-D-Phe-Arg-Dab)-Trp-NH2 (peptide)
peptide: Cyclopropanecarbonyl-EH[dF]R[Dab]W-NH2
modifications: lactam 1-5
SMILES: N=C(N)NCCC[C@@H]1NC(=O)[C@@H](Cc2ccccc2)NC(=O)[C@H](Cc2c[nH]cn2)NC(=O)[C@@H](NC(=O)C2CC2)CCC(=O)NCC[C@@H](C(=O)N[C@@H](Cc2c[nH]c3ccccc23)C(N)=O)NC1=O
notes: also called 9.19
B11: cyclo-hexanoyl-cyclo(Glu-His-D-Phe-Arg-Dab)-Trp-NH2 (peptide)
peptide: Cyclohexanecarbonyl-EH[dF]R[Dab]W-NH2
modifications: lactam 1-5
notes: also called 9.20
B12: cyclopentyl acetyl-cyclo(Glu-His-D-Phe-Arg-Dab)-Trp-NH2 (peptide)
peptide: Cyclopentylacetyl-EH[dF]R[Dab]W-NH2
modifications: lactam 1-5
notes: also called 9.21
B13: cyclohexyl acetyl-cyclo(Glu-His-D-Phe-Arg-Dab)-Trp-NH2 (peptide)
peptide: Cyclohexylacetyl-EH[dF]R[Dab]W-NH2
modifications: lactam 1-5
notes: also called 9.22
B14: phenyl acetyl-cyclo(Glu-His-D-Phe-Arg-Dab)-Trp-NH2 (peptide)
peptide: PhAc-EH[dF]R[Dab]W-NH2
modifications: lactam 1-5
notes: also called 9.23
B15: phenyl propanoyl-cyclo(Glu-His-D-Phe-Arg-Dab)-Trp-NH2 (peptide)
peptide: Hydrocinnamoyl-EH[dF]R[Dab]W-NH2
modifications: lactam 1-5
notes: also called 9.24
B16: Ac-Nle-cyclo(Glu-His-D-Phe-Arg-Dap)-Trp-NH2 (peptide)
peptide: Ac-[Nle]EH[dF]R[Dap]W-NH2
modifications: lactam 2-6
B17: α-MSH (Ac-Ser-Tyr-Ser-Met-Glu-His-Phe-Arg-Trp-Gly-Lys-Pro-Val-NH2) (ligand)
peptide: Ac-SYSMEHFRWGKPV-NH2

Each binder was assayed against T1, human melanocortin-1 receptor (human, UniProt Q01726 1-317) (assay: cell-based or functional assay).
T1 sequence (Q01726 whole entry): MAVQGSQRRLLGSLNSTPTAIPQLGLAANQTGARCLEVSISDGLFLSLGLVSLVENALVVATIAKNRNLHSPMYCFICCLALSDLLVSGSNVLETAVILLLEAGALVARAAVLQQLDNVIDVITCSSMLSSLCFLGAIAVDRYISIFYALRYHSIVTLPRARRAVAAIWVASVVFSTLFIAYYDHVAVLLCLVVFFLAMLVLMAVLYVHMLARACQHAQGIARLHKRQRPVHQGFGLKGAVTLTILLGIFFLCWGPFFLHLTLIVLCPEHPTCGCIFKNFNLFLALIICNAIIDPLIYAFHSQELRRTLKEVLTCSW

| Binder | MC-1 Emax (average; cAMP HBL) | MC-1 EC50 (average; cAMP HBL) |
| --- | --- | --- |
| B1 | 87% |  |
| B2 | 88% |  |
| B3 | 97% |  |
| B4 | 75% |  |
| B5 | 80% | 31 nM |
| B6 | 91% |  |
| B7 | 89% |  |
| B8 | 90% |  |
| B9 | 87% |  |
| B10 | 83% |  |
| B11 | 79% |  |
| B12 | 83% |  |
| B13 | 85% |  |
| B14 | 82% |  |
| B15 | 83% |  |

What follows are binders tested against melanocortin-5 receptor (UniProt P33032 1-325) (assay: cell-based or functional assay).
Chain of melanocortin-5 receptor (P33032 whole entry): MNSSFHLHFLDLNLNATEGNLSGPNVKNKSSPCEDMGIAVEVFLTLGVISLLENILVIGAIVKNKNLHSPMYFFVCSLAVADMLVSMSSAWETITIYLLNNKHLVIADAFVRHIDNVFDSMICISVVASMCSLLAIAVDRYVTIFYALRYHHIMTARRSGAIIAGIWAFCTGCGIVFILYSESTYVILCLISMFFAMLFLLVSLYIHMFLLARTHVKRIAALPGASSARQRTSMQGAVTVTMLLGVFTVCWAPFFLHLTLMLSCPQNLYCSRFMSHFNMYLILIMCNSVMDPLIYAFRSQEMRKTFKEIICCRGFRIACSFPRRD

| Binder | Functional - CEREP (EC50; nM) |
| --- | --- |
| B16 | > 10000 nM |

The binders below were run against melanocortin-2 receptor (UniProt Q01718 1-297) (assay: cell-based or functional assay).
Chain of melanocortin-2 receptor (Q01718 whole entry): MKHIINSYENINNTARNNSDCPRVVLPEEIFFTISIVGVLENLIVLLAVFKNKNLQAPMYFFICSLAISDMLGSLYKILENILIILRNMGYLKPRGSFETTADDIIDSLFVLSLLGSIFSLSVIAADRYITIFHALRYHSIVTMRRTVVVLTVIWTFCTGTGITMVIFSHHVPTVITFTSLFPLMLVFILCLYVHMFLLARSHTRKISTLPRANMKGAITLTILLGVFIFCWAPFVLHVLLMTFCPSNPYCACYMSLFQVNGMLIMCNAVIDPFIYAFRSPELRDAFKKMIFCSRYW

| Binder | Functional - CEREP (EC50; nM) |
| --- | --- |
| B17 | > 10000 nM |
| B16 | > 10000 nM |

The binders below were run against melanocortin-3 receptor (UniProt P41968 1-323) (assay: cell-based or functional assay).
Chain of melanocortin-3 receptor (P41968 whole entry): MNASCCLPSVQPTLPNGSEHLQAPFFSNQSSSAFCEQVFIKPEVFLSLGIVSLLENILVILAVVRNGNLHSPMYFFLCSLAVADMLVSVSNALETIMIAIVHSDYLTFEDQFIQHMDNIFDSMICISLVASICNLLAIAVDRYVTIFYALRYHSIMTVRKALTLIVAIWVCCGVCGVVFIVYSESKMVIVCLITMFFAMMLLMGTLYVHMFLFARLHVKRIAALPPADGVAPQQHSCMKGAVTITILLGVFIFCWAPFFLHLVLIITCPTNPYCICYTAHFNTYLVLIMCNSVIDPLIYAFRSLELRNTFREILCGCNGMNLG

| Binder | Functional - CEREP (EC50; nM) |
| --- | --- |
| B16 | > 10000 nM |

Each binder was assayed against T1, human melanocortin-1 receptor (assay: [I125]-NDP-α-MSH competition, hMC1r HEK-293 membranes).

| Binder | Ki |
| --- | --- |
| B5 | 310 nM |
| B10 | 3 nM |

The binders below were run against T2, human melanocortin-4 receptor (human, UniProt P32245 1-332) (assay: [I125]-NDP-α-MSH competition, hMC4r HEK-293 membranes).
T2 construct: whole, on cells; Ki assay used membrane homogenates of HEK-293 cells expressing recombinant hMC4r; also called MC4r; hMC4r
T2 sequence (P32245 whole entry): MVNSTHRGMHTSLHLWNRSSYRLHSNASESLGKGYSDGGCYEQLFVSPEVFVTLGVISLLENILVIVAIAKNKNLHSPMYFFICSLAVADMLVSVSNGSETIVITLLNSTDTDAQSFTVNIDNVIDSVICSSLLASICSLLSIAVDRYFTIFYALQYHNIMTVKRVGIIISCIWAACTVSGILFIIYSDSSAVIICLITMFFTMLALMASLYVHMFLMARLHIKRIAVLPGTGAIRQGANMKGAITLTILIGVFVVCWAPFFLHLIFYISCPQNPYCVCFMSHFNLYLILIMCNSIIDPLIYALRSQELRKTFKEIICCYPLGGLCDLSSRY

| Binder | Ki |
| --- | --- |
| B1 | 540 nM |
| B2 | 10000 nM |
| B3 | 45 nM |
| B4 | 510 nM |
| B5 | 10000 nM |
| B6 | 890 nM |
| B7 | 365 nM |
| B8 | 110 nM |
| B9 | 100 nM |
| B10 | 640 nM |
| B11 | 165 nM |
| B12 | 93 nM |
| B13 | 63 nM |
| B14 | 205 nM |
| B15 | 285 nM |
